This is an account of results in patent US20140051106.

One data set concerns the target T1, RPS23 20mer S14A.
T1 chain: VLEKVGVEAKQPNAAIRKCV

For the next data set, the target named is T2, RPS23 20mer P12I.
T2 chain: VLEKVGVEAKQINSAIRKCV

A further data set has as its target T3, RPS23 20mer K10A.
T3 chain: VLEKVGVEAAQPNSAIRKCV

The next data set addresses T4, RPS23 20mer V07A.
T4 chain: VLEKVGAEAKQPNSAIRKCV

The target of the next data set is T5, RPS23 16mer.
T5 chain: EKVGVEAKQPNSAIRK

In data set [1] the target is T6, HIF-1α N-terminal oxygen dependent degradation domain (NODD) peptide, Q16665.
T6 chain: DALTLLAPAAGDTIISLDF

The next data set addresses T7, RPS23 20mer I16A.
T7 chain: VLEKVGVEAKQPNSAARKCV

A further data set deals with T8, RPS23 20mer V05A.
T8 chain: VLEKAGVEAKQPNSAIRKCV

A further data set has as its target T9, S. Pombe RPS23 peptide.
T9 chain: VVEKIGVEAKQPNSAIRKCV

A further data set concerns the target T10, RPS23 20mer P12A.
T10 chain: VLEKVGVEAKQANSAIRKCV

The target of data set [2] is T11, S. Cerevisiae RPS23 peptide.
T11 chain: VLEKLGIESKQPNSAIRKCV

The next data set deals with T12, RPS23 20mer N13A.
T12 chain: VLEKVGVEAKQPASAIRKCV

In another data set the target is T13, RPS23 20mer C19A.
T13 chain: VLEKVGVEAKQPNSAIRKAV

The next data set deals with T14, RPS23 20mer K18A.
T14 chain: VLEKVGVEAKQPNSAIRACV

The target of data set [3] is T15, HIF-1α C-terminal oxygen dependent degradation domain (CODD) peptide, Q16665.
T15 chain: DLDLEMLAPYIPMDDDFQL

For data set [4], the target named is RPS23 peptide (peptide fragment of the RPS23 protein).
A further data set deals with T16, RPS23 20mer G06A.
T16 chain: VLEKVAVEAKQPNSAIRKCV

For the next data set, the target named is T17, RPS23 20mer E08A.
T17 chain: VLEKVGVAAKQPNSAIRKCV

For data set [5], the target named is T18, HIF-1α C-terminal transcriptional activation domain (CTAD) peptide, Q16665.
T18 chain: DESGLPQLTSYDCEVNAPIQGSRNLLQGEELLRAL

Another data set deals with T19, RPS23 20mer Q11A.
T19 chain: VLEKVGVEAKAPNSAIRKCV

A further data set concerns the target T20, RPS23 20mer K04A.
T20 chain: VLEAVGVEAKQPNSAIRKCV

For data set [6], the target named is histone fragment peptides.

B1: recombinant full-length human OGFOD1 (protein)
chain: MNGKRPAEPGPARVGKKGKKEVMAEFSDAVTEETLKKQVAEAWSRRTPFSHEVIVMDMDPFLHCVIPNFIQSQDFLEGLQKELMNLDFHEKYNDLYKFQQSDDLKKRREPHISTLRKILFEDFRSWLSDISKIDLESTIDMSCAKYEFTDALLCHDDELEGRRIAFILYLVPPWDRSMGGTLDLYSIDEHFQPKQIVKSLIPSWNKLVFFEVSPVSFHQVSEVLSEEKSRLSISGWFHGPSLTRPPNYFEPPIPRSPHIPQDHEILYDWINPTYLDMDYQVQIQEEFEESSEILLKEFLKPEKFTKVCEALEHGHVEWSSRGPPNKRFYEKAEESKLPEILKECMKLFRSEALFLLLSNFTGLKLHFLAPSEEDEMNDKKEAETTDITEEGTSHSPPEPENNQMAISNNSQQSNEQTDPEPEENETKKESSVPMCQGELRHWKTGHYTLIHDHSKAEFALDLILYCGCEGWEPEYGGFTSYIAKGEDEELLTVNPESNSLALVYRDRETLKFVKHINHRSLEQKKTFPNRTGFWDFSFIYYE
As for B1, the Hydroxylation entry in the data set with RPS23 20mer S14A is “+”; in the data set with RPS23 20mer, “++”; with RPS23 20mer P12I it was “-”; with RPS23 20mer K10A it was “++”; with RPS23 20mer V07A it was “++”; with RPS23 16mer, “+”. For the same protein, the Hydroxylation entry is on record as “++” in the data set with RPS23 20mer I16A; “++” in the data set with RPS23 20mer V05A; “++” in the data set with S. Pombe RPS23 peptide; “-” with RPS23 20mer P12A; “++” in data set [2]; “+” in the data set with RPS23 20mer N13A. Besides, the Hydroxylation result with RPS23 20mer C19A, with RPS23 20mer K18A, with RPS23 20mer G06A, in the data set with RPS23 20mer E08A, with RPS23 20mer Q11A and with RPS23 20mer K04A was “++” each time. Further, the Hydroxylation entry with E. Coli S12 peptide is given as “-”. The “amino acid analysis of the enzymatic product” value in the data set with RPS23 20mer was “The results clearly demonstrate the presence of trans-3-hydroxyproline in the enzymatic product”. In addition, the “MALDI-TOF, +16 Da mass shift characteristic of hydroxylation” value in data set [1], in data set [3] and in data set [5] was “None of these potential substrates displayed evidence of a +16 Da mass shift characteristic of hydroxylation” in each case. The “Hydroxylation (MALDI assay)” value in [3] is recorded as “No hydroxylation of the PHD2 C-terminal oxygen-dependent degradation domain (CODD) substrate by OGFOD1 was observed under the same assay conditions”. Besides, the 2OG turnover assay result in data set [4] is recorded as “Activity is also stimulated significantly in the presence of a peptide fragment of the RPS23 protein”. Further, the “MALDI mass spectrometry, +16 mass shift” value in data set [4] was “a clear +16 mass shift was observed upon incubation of RPS23 peptide with wild-type OGFOD1”. Further, the “MALDI-TOF, demethylation” value in data set [6] is recorded as “Neither did we find that OGFOD1 catalyzed N^ε-methyl-lysine or arginyl demethylation of histone fragment peptides”.

B2: H155A mutant of full-length human OGFOD1 (protein)
chain: MGSSHHHHHHSSGLVPRGSHMASMNGKRPAEPGPARVGKKGKKEVMAEFSDAVTEETLKKQVAEAWSRRTPFSHEVIVMDMDPFLHCVIPNFIQSQDFLEGLQKELMNLDFHEKYNDLYKFQQSDDLKKRREPHISTLRKILFEDFRSWLSDISKIDLESTIDMSCAKYEFTDALLCADDELEGRRIAFILYLVPPWDRSMGGTLDLYSIDEHFQPKQIVKSLIPSWNKLVFFEVSPVSFHQVSEVLSEEKSRLSISGWFHGPSLTRPPNYFEPPIPRSPHIPQDHEILYDWINPTYLDMDYQVQIQEEFEESSEILLKEFLKPEKFTKVCEALEHGHVEWSSRGPPNKRFYEKAEESKLPEILKECMKLFRSEALFLLLSNFTGLKLHFLAPSEEDEMNDKKEAETTDITEEGTSHSPPEPENNQMAISNNSQQSNEQTDPEPEENETKKESSVPMCQGELRHWKTGHYTLIHDHSKAEFALDLILYCGCEGWEPEYGGFTSYIAKGEDEELLTVNPESNSLALVYRDRETLKFVKHINHRSLEQKKTFPNRTGFWDFSFIYYE
Consider B2, for which the “MALDI mass spectrometry, +16 mass shift” value in [4] is on record as “no such change was detectable with the H155A or D157A variants under standard assay conditions”.

B3: D157A mutant of full-length human OGFOD1 (protein)
chain: MGSSHHHHHHSSGLVPRGSHMASMNGKRPAEPGPARVGKKGKKEVMAEFSDAVTEETLKKQVAEAWSRRTPFSHEVIVMDMDPFLHCVIPNFIQSQDFLEGLQKELMNLDFHEKYNDLYKFQQSDDLKKRREPHISTLRKILFEDFRSWLSDISKIDLESTIDMSCAKYEFTDALLCADAELEGRRIAFILYLVPPWDRSMGGTLDLYSIDEHFQPKQIVKSLIPSWNKLVFFEVSPVSFHQVSEVLSEEKSRLSISGWFHGPSLTRPPNYFEPPIPRSPHIPQDHEILYDWINPTYLDMDYQVQIQEEFEESSEILLKEFLKPEKFTKVCEALEHGHVEWSSRGPPNKRFYEKAEESKLPEILKECMKLFRSEALFLLLSNFTGLKLHFLAPSEEDEMNDKKEAETTDITEEGTSHSPPEPENNQMAISNNSQQSNEQTDPEPEENETKKESSVPMCQGELRHWKTGHYTLIHDHSKAEFALDLILYCGCEGWEPEYGGFTSYIAKGEDEELLTVNPESNSLALVYRDRETLKFVKHINHRSLEQKKTFPNRTGFWDFSFIYYE
As to B3, the “MALDI mass spectrometry, +16 mass shift” value in data set [4] was “no such change was detectable with the H155A or D157A variants under standard assay conditions”.
